The results in this text go back to patent CN115992129A (YEASEN BIOLOGICAL TECH SHANGHAI CO LTD, dated 2023).

The target in the experiment is T1, BSA (UniProt P02769 25-607).
T1 construct: Negative control antigen in ELISA; also called BSA对照
The experiment is described as follows: ELISA, BSA coated and blocked as control, HRP anti-IgY secondary. On the technique in general: In an ELISA, binding on a coated surface is turned into a signal by an enzyme label.

T1 sequence (P02769 25-607 limits assumed): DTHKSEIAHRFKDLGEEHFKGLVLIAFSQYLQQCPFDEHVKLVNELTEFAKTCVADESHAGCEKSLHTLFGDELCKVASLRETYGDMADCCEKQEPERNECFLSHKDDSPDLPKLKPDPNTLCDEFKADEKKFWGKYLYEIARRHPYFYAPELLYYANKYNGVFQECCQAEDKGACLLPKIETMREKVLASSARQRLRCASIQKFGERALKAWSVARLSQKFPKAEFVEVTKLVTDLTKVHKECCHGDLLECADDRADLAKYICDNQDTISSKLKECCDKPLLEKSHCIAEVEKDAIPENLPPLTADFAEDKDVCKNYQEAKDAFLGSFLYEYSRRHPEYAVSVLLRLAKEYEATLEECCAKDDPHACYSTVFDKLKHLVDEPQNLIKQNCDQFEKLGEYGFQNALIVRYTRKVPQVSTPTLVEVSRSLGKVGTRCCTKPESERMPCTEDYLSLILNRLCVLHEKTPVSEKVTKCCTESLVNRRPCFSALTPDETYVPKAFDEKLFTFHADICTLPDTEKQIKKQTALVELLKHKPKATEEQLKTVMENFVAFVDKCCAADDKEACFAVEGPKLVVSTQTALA

B1: ProteinA抗体IgY-81 (antibody, V domains shown)
VH: AVTLDESGGGLQTPGGALSLVCKASGFTFSSNGMGWVRQAPGKGLEYVASISNDGSLTDYASPVKGRATISRDNGQSTVRLQLNNLRAEDTGTYYCAKSPGGGWLADPIDAWGRGTEVIVSS
VL: QAALTQPASVSANPGETVQITCSGGGSSRYYGWYQQKSPGSAPVTLIYDNINRPSGIPSRFSGSTSGSTGTLSITGVRAEDEAVYYCGSFDSSGTGIFGAGTTLTVL
notes: Coating (capture) antibody in the sandwich ELISA
As to B1, the binding result is recorded as “no binding (tested: 1μg/ml, two-fold dilutions)”.

B2: ProteinA抗体IgY-80 (antibody, V domains shown)
VH: AVTLDESGGGLQTPGGTLSLVCKASGFTFSDRGMHWVRQAPGKGLEWVAGTYTSGSITYYAPAVNGRATISRDNGQSTLRLQLNNLRAEDSGTYYCARDFGPSGWNAGSIDAWGHGTEVIVSS
VL: QAALTQPSSVSANLGGTVKITCSGGGSRYGYMYGWIQQTSPGSAPVTVIYDNTNRPSNIPSRFSGSLSGSTNTLTITGVQAEDEAVYFCGSYEGTTLTFGAGTTLTVL
notes: Biotin-conjugated as the detection antibody in the sandwich ELISA
For the molecule B2, the binding result is reported as “no binding (tested: 1μg/ml, two-fold dilutions)”.
